Where only a bound is given, the exact number is not on record here.

Six molecules from patent US20190367619A1 (ARGENX, published 2019) can be followed below.

In assay [1] the target is T1, human galectin-10-His (human).
T1 construct: The last M of the tag may be Met1 of galectin-10; also called humanGal10-His; hGal10
T1 chain: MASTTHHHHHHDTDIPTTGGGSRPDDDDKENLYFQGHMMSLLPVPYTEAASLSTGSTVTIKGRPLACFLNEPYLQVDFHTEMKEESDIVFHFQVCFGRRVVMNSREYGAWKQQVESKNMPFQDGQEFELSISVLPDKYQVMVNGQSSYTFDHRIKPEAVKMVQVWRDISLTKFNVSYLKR
As to the kind of experiment: SPR Biacore T3000, mouse IgG1 captured. Here is the method: The binding capacity of the mouse IgG1 antibody panel to galectin-10 was analysed on Biacore T3000. For this purpose, a capture approach was used, where a fixed concentration (1.5 μg/mL) of the mouse IgG1 clone was captured by polyclonal anti-mouse Fc antibodies immobilized on CM5 Chip to reach a binding signal around 150 RU. Then a serial dilution of human and cynomolgus WGS isoform of galectin-10-His (serial dilution, 1 over 2 from 5 μg/mL) diluted in HBS-EP pH7.4 was injected. Raw data were analysed via BIA evaluation software with a blank subtraction. The kd/KD and Rmax of each mAbs to galectin-10-His was determined using the Fit Kinetics simultaneous ka/kd/Binding with mass transfer/Local Rmax on BIA evaluation software.
Background: SPR reads the build-up and loss of mass on a sensor chip optically.

Assay [2] deals with T2, recombinant human galectin-10, TEV-cleaved (human, UniProt Q05315 1-142).
T2 sequence: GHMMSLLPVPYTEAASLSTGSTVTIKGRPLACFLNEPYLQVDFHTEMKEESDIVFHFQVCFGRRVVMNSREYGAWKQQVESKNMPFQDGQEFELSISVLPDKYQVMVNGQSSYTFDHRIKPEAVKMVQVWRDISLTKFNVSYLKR
In words: cell-based or functional assay.

Assay [3] concerns the target T3, cynomolgus galectin-10-His, WGS isoform (cynomolgus).
T3 construct: also called cynoGal10-WGS; not shown: His tag
T3 chain: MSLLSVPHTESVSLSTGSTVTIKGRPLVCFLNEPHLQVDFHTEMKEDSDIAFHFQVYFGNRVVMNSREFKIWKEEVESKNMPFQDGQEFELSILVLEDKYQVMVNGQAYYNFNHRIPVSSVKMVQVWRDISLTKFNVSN
As to the kind of experiment: ELISA, coated antigen 0.5 ug/mL. How it is done:
(§1) In a similar setup to that used during the characterization of the scFv-human Fc molecules, the relative binding properties of the 7 mouse IgG1 antibodies were analyzed by ELISA. A Maxisorp plate was coated overnight with 0.5 μg/mL of human or cynomolgus WGS or YRT isoform of galectin-10-His. Then a serial dilution of each clone (from 100 nM, dilution 1/4, 12 points of dilutions) was incubated on coated galectin-10. After several washing steps, detection of the bound mouse IgG1 was carried out with an anti-mouse Fc-HRP antibody (DAMPO, Jackson ImmunoResearch, Catalog 715-035-150). Absorbance was measured at 450 nm (reference at 620 nm) with Tecan instrument. The raw data (OD values) were plotted on GraphPad Prism 7.01. The EC50 values for each antibody, calculated with a non-linear regression (log(agonist) vs. response Variable slope (four parameters)), are shown in the table below. Antibody 1D11 from the previous panel was included for comparison.

The target of assay [4] is T1, human galectin-10-His. As to the kind of experiment: ELISA, coated antigen 0.5 ug/mL. How it is done: as §1
Background: In an ELISA, binding on a coated surface is turned into a signal by an enzyme label.

The target in assay [5] is T2, recombinant human galectin-10, …. In words: cell-based or functional assay. The source holds these as a separate data set.
In assay [6] the target is T1, human galectin-10-His. In words: ELISA, galectin-10-His coated at 1 ug/mL, Fab. How it is done:
The binding capacity of the lead anti-galectin-10 Fabs was tested by binding ELISA. Briefly, a Maxisorp plate was coated overnight with 1 μg/mL of human galectin-10-His. Then a serial dilution of each clone (from 4 μM, dilution 1/4, 12 points of dilutions) was incubated on coated galectin-10. After several washing steps, detection of the bound Fab was carried out with an anti-human IgG Fab specific-peroxidase. Absorbance was measured at 450 nm (reference at 620 nm) with Tecan instrument.

B1: 1D11 mouse IgG1 (antibody, V domains shown)
VH: QVQLVESGGGLVQPGGSLRLSCAASGFTFDDYAMSWVRQAPGKGLEWVSGISWNGGSTYYAESMKGRFTISRDNAKNTLYLQMNSLKSEDTAVYYCAKDRNLGYRLGYPYDYWGQGTQVTVSS
VL: QSVLTQPPSVSGSPGETVTISCAGTSSDVGYGNYVSWYQQLPGMAPRLLIYEVNKRASGITDRFSGSKSGNTASLTISGLQSEDEGDYYCASYRSSNNAVFGGGTHLTVL
notes: Llama VH and VL on mouse IgG1 heavy chain constant domains (CH1-CH2-CH3) and mouse lambda light chain constant domain; also called 1D011; 1D11 mIgG1
Take B1: in the assay with human galectin-10-His [1], the dissociation constant (Kd) came out at 0.7 nM, the koff turned out to be 0.00931 s⁻¹ and the association rate constant (kon) is 1.27e+07 M⁻¹ s⁻¹. Besides, in assay [2], the “50% dissolution (min) of CLCs, antibody 50 uM” value turned out to be 30.1 min and the “90% dissolution (min) of CLCs, antibody 50 uM” value was 56.7 min. In assay [3], the OD values was found to be 0.05 OD and the binding result is “no binding (tested: serial dilution from 100 nM)”. Moreover, in the assay with human galectin-10-His [4], the EC50 was determined as 0.1 nM and the OD values came to 2 OD. Also, in assay [5], the “50% crystal dissolution (min), 50 uM” value was found to be 100 min and the “90% crystal dissolution (min), 50 uM” value was more than 120 min.

B2: 1D11 Fab (Fab, V domains shown)
VH: QVQLVESGGGLVQPGGSLRLSCAASGFTFDDYAMSWVRQAPGKGLEWVSGISWNGGSTYYAESMKGRFTISRDNAKNTLYLQMNSLKSEDTAVYYCAKDRNLGYRLGYPYDYWGQGTQVTVSS
VL: QSVLTQPPSVSGSPGETVTISCAGTSSDVGYGNYVSWYQQLPGMAPRLLIYEVNKRASGITDRFSGSKSGNTASLTISGLQSEDEGDYYCASYRSSNNAVFGGGTHLTVL
notes: Fab with human CH1 (including part of the hinge region) and human lambda constant domain; also called Fab-1D11; 1D11 hFab
For B2, in assay [5], the “50% crystal dissolution (min), 50 uM” value turned out to be 33.4 min and the “90% crystal dissolution (min), 50 uM” value came out at 97.8 min. Moreover, in the assay with human galectin-10-His [6], the Bmax was found to be 1.59 OD and the EC50 turned out to be 1.4 nM.

B3: 10B02 Fab (Fab, V domains shown)
VH: QVQLVESGGGLVQPGGSLRVSCAASGFTFSYHYMNWVRQAPGKGLEWVSGISAGGGRTYYADSVKGRFTISRDNAKNTLYLQMNSLNAEDTALYYCARVHGITNDYWGQGTQVTVSS
VL: QSALTQPPSVSGSPGKTVTISCAGTSSDVGYGNYVSWYQQLPGMAPKLLIYEVNKRASGITDRFSGSKSGNTAFLTISGLQSEDEADYYCASYRNSNNWVFGGGTHLTVL
notes: Fab with human CH1 (including part of the hinge region) and human lambda constant domain; also called 10B02 hFab
As for B3, in assay [5], the “50% crystal dissolution (min), 50 uM” value is 102 min and the “90% crystal dissolution (min), 50 uM” value was more than 120 min. For the same molecule, in the assay with human galectin-10-His [6], the Bmax was 0.74 OD and the EC50 stood at 61.2 nM.

B4: 10D02 Fab (Fab, V domains shown)
VH: EVQLVESGGGLVQPGGSLRVSCAASGFTFSSYYMSWVRQAPGKGLEWVSGIVTGGGRTHYTDSVKGRFTITRDNAKNTLYLQMNSLRPEDTALYYCARVNGVVTNYDYWGQGTQVTVSS
VL: QAVLTQPPSVSGSPGKTVTISCAGTSSDVGYGNYVSWYQQLPGMAPKLLIYDVNKRASGITDRFSGSKSGNTASLTISGLQSEDEADYFCASYRSPNNVVFGQGTHLTVL
notes: Fab with human CH1 (including part of the hinge region) and human lambda constant domain; also called 10D2; 10D02 hFab
Turning to B4, in assay [5], the “50% crystal dissolution (min), 50 uM” value turned out to be 59.7 min and the “90% crystal dissolution (min), 50 uM” value was more than 120 min. For the same molecule, in the assay with human galectin-10-His [6], the Bmax was 1.03 OD and the EC50 stood at 16.1 nM.

B5: 11F02 Fab (Fab, V domains shown)
VH: ELQVVESGGGLVQPGGSLRLSCAASGFTFSTNYMNWVRQAPGKGLEWVSGITSHGARTYYADSVKGRFTISRDNSKNTLYLQMNSLKPEDTALYYCARTDHASLDAWGQGTLVTVSS
VL: QTVVTQEPSLSVSPGGTVTLTCGLSSGSVTSSNYPGWYQQKPGQAPRTLIYNTNSRYSGVPNRFSGSISGNKAALTITGAQPEDEADYYCALYMGSSSYNTVFGGGTHLTVL
notes: Fab with human CH1 (including part of the hinge region) and human lambda constant domain; also called 11F02 hFab
As to B5, in assay [5], the “50% crystal dissolution (min), 50 uM” value worked out at 77.9 min and the “90% crystal dissolution (min), 50 uM” value was more than 120 min. In the assay with human galectin-10-His [6], this molecule had a Bmax of 0.46 OD and an EC50 of 81.4 nM.

B6: 11F12 Fab (Fab, V domains shown)
VH: QVQLQESGGGLVQPGGSLRLSCAASGFTFSTNYMNWVRQAPGKGLEWVSGITSGGGRTYYADSVKGRFTISRDNAKNTLYLQMNSLKPEDTALYYCARTDHAWLDAWGQGTLVTVSS
VL: HSAVTQPPSVSGTLGKTVTISCAGTSSDVGYGNYVSWYQHLPGTAPKLLIYAVSTRASGVPDRFSGSKSGNTASLTISGLQSEDEGDYYCASYSVRNNVVFGGGTRLTVL
notes: Fab with human CH1 (including part of the hinge region) and human lambda constant domain; also called 11F12 hFab
Turning to B6, in assay [5], the “50% crystal dissolution (min), 50 uM” value was 62 min and the “90% crystal dissolution (min), 50 uM” value was more than 120 min. In the assay with human galectin-10-His [6], this molecule yielded a Bmax of 1.38 OD and an EC50 of 22.4 nM.

The Kd is the equilibrium constant for the complex coming apart. One may read the koff as a measure of how fast the partners let go of each other. A word on the kon: it is the rate constant with which the complex forms. A word on the EC50: it is the concentration that produces a half-maximal response. The low end stands for higher potency in that assay, the high end for lower potency in that assay.
